Measured values published in article PMC3864119 (Journal of proteome research, 2013).

Target: FLAG-tagged human GABAC-ρ1 subunit V353D (human, UniProt P24046 22-479, V353D)
Assay: co-IP

fold change of the ratio of immunoprecipitated calnexin/ρ1 against WT: 1.8 fold
B1: Calnexin (natural protein, human (endogenous in HEK293), UniProt P27824 21-592, looked up)
chain: HDGHDDDVIDIEDDLDDVIEEVEDSKPDTTAPPSSPKVTYKAPVPTGEVYFADSFDRGTLSGWILSKAKKDDTDDEIAKYDGKWEVEEMKESKLPGDKGLVLMSRAKHHAISAKLNKPFLFDTKPLIVQYEVNFQNGIECGGAYVKLLSKTPELNLDQFHDKTPYTIMFGPDKCGEDYKLHFIFRHKNPKTGIYEEKHAKRPDADLKTYFTDKKTHLYTLILNPDNSFEILVDQSVVNSGNLLNDMTPPVNPSREIEDPEDRKPEDWDERPKIPDPEAVKPDDWDEDAPAKIPDEEATKPEGWLDDEPEYVPDPDAEKPEDWDEDMDGEWEAPQIANPRCESAPGCGVWQRPVIDNPNYKGKWKPPMIDNPSYQGIWKPRKIPNPDFFEDLEPFRMTPFSAIGLELWSMTSDIFFDNFIICADRRIVDDWANDGWGLKKAADGAAEPGVVGQMIEAAEERPWLWVVYILTVALPVFLVILFCCSGKKQTSGMEYKKTDAPQPDVKEEEEEKEEEKDKGDEEEEGEEKLEEKQKSDAEEDGGTVSQEEEDRKPKAEEDEILNRSPRNRKPRRE
